In this experiment the target is EGFP-MYO10-MYO7B chimeric myosin (Bos taurus (Bt) | human (Hs)) (UniProt P79114). The experiment is described as follows: in-cell filopodial tip enrichment assay with a chimeric myosin.
Chain of UniProt P79114 (P79114 whole entry, change not shown): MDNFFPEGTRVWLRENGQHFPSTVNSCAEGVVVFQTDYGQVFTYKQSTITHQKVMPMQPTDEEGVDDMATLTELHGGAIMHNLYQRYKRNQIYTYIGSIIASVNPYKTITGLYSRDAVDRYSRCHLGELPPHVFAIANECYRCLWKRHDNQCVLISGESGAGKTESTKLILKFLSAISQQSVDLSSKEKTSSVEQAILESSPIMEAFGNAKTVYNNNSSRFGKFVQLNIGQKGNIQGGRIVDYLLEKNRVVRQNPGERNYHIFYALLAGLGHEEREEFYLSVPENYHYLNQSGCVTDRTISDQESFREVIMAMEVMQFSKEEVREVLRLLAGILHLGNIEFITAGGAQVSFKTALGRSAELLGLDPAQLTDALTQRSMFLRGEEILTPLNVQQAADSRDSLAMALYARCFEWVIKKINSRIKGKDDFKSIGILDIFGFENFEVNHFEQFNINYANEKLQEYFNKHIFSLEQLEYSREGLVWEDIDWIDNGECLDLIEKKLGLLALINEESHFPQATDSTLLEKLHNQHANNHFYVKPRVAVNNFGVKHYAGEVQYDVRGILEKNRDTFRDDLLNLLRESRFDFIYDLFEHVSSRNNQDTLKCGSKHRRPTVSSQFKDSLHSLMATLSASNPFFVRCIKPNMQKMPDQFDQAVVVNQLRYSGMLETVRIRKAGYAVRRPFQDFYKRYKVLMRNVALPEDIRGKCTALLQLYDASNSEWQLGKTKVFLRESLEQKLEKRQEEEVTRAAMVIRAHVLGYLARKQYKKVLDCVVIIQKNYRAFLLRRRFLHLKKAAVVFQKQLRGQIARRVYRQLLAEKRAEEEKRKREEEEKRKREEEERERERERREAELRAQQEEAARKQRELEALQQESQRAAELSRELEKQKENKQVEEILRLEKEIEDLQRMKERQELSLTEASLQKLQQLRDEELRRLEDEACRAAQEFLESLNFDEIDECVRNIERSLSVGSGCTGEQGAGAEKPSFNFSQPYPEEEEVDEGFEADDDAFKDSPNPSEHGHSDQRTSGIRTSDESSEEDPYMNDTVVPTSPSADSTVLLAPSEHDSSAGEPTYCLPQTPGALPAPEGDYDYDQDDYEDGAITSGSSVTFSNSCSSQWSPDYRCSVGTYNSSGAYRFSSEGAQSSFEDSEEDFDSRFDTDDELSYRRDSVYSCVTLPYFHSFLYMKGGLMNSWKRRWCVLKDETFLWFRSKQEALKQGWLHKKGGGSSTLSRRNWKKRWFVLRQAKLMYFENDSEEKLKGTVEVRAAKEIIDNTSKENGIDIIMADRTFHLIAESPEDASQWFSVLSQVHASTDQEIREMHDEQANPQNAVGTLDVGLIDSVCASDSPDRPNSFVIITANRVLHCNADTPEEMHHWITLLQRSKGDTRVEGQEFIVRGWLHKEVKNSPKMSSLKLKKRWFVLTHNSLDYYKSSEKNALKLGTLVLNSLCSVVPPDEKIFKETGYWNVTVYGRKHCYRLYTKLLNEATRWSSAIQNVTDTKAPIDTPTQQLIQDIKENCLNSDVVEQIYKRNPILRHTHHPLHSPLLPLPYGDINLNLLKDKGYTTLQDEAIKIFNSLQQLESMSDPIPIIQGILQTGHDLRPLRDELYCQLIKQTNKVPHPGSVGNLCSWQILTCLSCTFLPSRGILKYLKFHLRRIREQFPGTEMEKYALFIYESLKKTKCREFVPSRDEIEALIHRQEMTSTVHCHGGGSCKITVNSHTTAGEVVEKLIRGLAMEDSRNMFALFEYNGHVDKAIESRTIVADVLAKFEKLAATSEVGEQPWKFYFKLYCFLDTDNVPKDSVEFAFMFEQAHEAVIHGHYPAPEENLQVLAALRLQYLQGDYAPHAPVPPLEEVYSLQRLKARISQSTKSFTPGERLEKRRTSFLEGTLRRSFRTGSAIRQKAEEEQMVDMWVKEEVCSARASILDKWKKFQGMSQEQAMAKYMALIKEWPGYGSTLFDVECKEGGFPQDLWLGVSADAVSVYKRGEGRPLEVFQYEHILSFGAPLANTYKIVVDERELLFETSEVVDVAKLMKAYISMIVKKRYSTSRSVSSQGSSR

B1: mCherry-ANKS4B (ankyrin repeat and sterile a motif domain containing 4B) (natural protein)
chain: MSTRYHQAASDSYLELLKEATKRDLNLSDEDGMTPTLLAAYHGNLEALEIICSRGGDPDRCDIWGNTPLHFAASNGHAHCVSFLVNFGANIFALDNDLQTPLDAAASREQNECVALLDKAATAQNIMNPKKVTRLKEQAQKNARRQIKECERLQEKHQNKMAHTYSKEESGTLSSSKGTFSRSSPSNASAPGTFGSLSKGIKDTFKIKFKKNKDTAEQVGKEGRSGQRNVMEVFREEEEDSFSGDFKEKLQLSAEEDGSVHHESILNRPGLGSIVFRRNRISSPEDISDSKREFGFKLPSELLQRQGASEADEGAADEEGEENGLKDDLPWDDDEVEWEEDVVDATPLEVFLLSQHLEEFLPIFKREQIDLEALLLCSDEDLQSIQMQLGPRKKVLNAINRRKQVLQQPGQLVDTSL
Regarding B1, the fold enrichment at filopodial tips relative to MYO10MD was 3 fold.

B2: mCherry-USH1C (harmonin/Usher syndrome 1C) (natural protein)
chain: MDRKVAREFRHKVDFLIENDAEKDYLYDVLRMYHQTMDVAVLVGDLKLVINEPSRLPLFDAIRPLIPLKHQVEYDQLTPRRSRKLKEVRLDRLHPEGLGLSVRGGLEFGCGLFISHLIKGGQADSVGLQVGDEIVRINGYSISSCTHEEVINLIRTKKTVSIKVRHIGLIPVKSSPDEPLTWQYVDQFVSESGGVRGSLGSPGNRENKEKKVFISLVGSRGLGCSISSGPIQKPGIFISHVKPGSLSAEVGLEIGDQIVEVNGVDFSNLDHKEAVNVLKSSRSLTISIVAAAGRELFMTDRERLAEARQRELQRQELLMQKRLAMESNKILQEQQEMERQRRKEIAQKAAEENERYRKEMEQIVEEEEKFKKQWEEDWGSKEQLLLPKTITAEVHPVPLRKPKYDQGVEPELEPADDLDGGTEEQGEQDFRKYEEGFDPYSMFTPEQIMGKDVRLLRIKKEGSLDLALEGGVDSPIGKVVVSAVYERGAAERHGGIVKGDEIMAINGKIVTDYTLAEAEAALQKAWNQGGDWIDLVVAVCPPKEYDDELTFF
The molecule B2 came in with a fold enrichment at filopodial tips relative to MYO10MD of 3 fold.

For the origin of these results see paper doi:10.1101/2020.09.06.285171.
